# Patent publication US20220041686A1 (Stanford University, published 2022)
# B1: B7H3-Fc (Fc fusion)
# chain: LEVQVPEDPVVALVGTDATLCCSFSPEPGFSLAQLNLIWQLTDTKQLVHSFAEGQDQGSAYANRTALFPDLLAQGNASLRLQRVRVADEGSFTCFVSIRDFGSAAVSLQVAAPYSKPSMTLEPNKDLRPGDTVTITCSSYQGYPEAEVFWQDGQGVPLTGNVTTSQMANEQGLFDVHSILRVVLGANGTYSCLVRNPVLQQDAHSSVTITPQRSPTGAVEVQVPEDPVVALVGTDATLRCSFSPEPGFSLAQLNLIWQLTDTKQLVHSFTEGRDQGSAYANRTALFPDLLAQGNASLRLQRVRVADEGSFTCFVSIRDFGSAAVSLQVAAPYSKPSMTLEPNKDLRPGDTVTITCSSYRGYPEAEVFWQDGQGVPLTGNVTTSQMANEQGLFDVHSVLRVVLGANGTYSCLVRNPVLQQDAHGSVTITGQPMT
# notes: Staining reagent for flow cytometry; not shown: Fc part
# What was measured:
# Assay in all cases: quantification of the flow cytometry plots of panel A (B7H3 Fc staining, CAR MFI), with or without 3 µM grazoprevir [Cont.) B]
# 065 = target: T1, 065
# T1 construct: Construct named only by number on the sheets; also called B7H3-cis SNIP scFv CAR with cleavage site 065
# 066 = target: T2, 066
# T2 construct: Construct named only by number on the sheets; also called B7H3-cis SNIP scFv CAR with cleavage site 066
# [1] = target: T3, B7H3-SNIP-scFv CAR (extracellular; cis)
# T3 construct: Only the full-length (uncleaved) CAR carries the scFv and is stained by B7H3 Fc; also called B7H3-cis SNIP scFv; B7H3-cis SNIP scFv CAR
binder,measurement,setting,value
B1,"fold CAR MFI, + Drug over - Drug",065,157 fold
same,"fold CAR MFI, + Drug over - Drug",066,129 fold
same,"fold CAR MFI, + Drug over - Drug",[1],70 fold
